From the supplement of paper PMC5998384

Experiments:
HeLa Kyoto [1] = test: melting temperature (median over replicates), in situ; higher = more thermally stable
HeLa Kyoto [2] = test: thermal stability score vs G1/S (z-score of summed log2 fold changes over temperatures); higher = more thermally stable than in G1/S
HeLa Kyoto [3] = test: solubility in G1/S (NP-40 vs SDS abundance) (log2 ratio); higher = more soluble; settings: cell cycle stage: G1/S
HeLa Kyoto [4] = test: solubility change mitosis vs G1/S (difference of NP-40 vs SDS log2 ratios) (log2 ratio difference); higher = more soluble in mitosis
[5] = cell cycle stage: early G1 (4.5 h after nocodazole release)
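Throughout, for melting temperature (median over replicates), in situ: HeLa Kyoto cells synchronized by double thymidine or nocodazole block, proteins quantified by TMT10plex mass spectrometry, three independent biological replicates.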
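Throughout, for solubility change mitosis vs G1/S (difference of NP-40 vs SDS log2 ratios): synchronized HeLa Kyoto cells (double thymidine block for G1/S, nocodazole release for mitosis), protein amounts in NP-40 versus SDS lysates quantified by mass spectrometry, three biological replicates.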
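Throughout, for solubility in G1/S (NP-40 vs SDS abundance): HeLa Kyoto cells arrested at G1/S by double thymidine block, proteins quantified by TMT10plex mass spectrometry in mild NP-40 versus SDS extracts, three biological replicates.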
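Throughout, for thermal stability score vs G1/S (z-score of summed log2 fold changes over temperatures): synchronized HeLa Kyoto cells, proteins quantified by TMT10plex mass spectrometry, three biological replicates, mitosis taken 0.5 h after nocodazole release, G1/S directly after double thymidine block.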

Sequence	melting temperature (HeLa Kyoto [1]; cell cycle stage: G1/S)	melting temperature (HeLa Kyoto [1]; cell cycle stage: mitosis)	thermal stability score (HeLa Kyoto [2]; [5])	thermal stability score (HeLa Kyoto [2]; cell cycle stage: mitosis)	solubility in G1/S (log2) (HeLa Kyoto [3])	solubility change mitosis (log2) (HeLa Kyoto [4])
MQRLQVVLGHLRGPADSGWMPQAAPCLSGAPQASAADVVVVHGRRTAICRAGRGGFKDTTPDELLSAVMTAVLKDVNLRPEQLGDICVGNVLQPGAGAIMARIAQFLSDIPETVPLSTVNRQCSSGLQAVASIAGGIRNGSYDIGMACGVESMSLADRGNPGNITSRLMEKEKARDCLIPMGITSENVAERFGISREKQDTFALASQQKAARAQSKGCFQAEIVPVTTTVHDDKGTKRSITVTQDEGIRPSTTMEGLAKLKPAFKKDGSTTAGNSSQVSDGAAAILLARRSKAEELGLPILGVLRSYAVVGVPPDIMGIGPAYAIPVALQKAGLTVSDVDIFEINEAFASQAAYCVEKLRLPPEKVNPLGGAVALGHPLGCTGARQVITLLNELKRRGKRAYGVVSMCIGTGMGAAAVFEYPGN [ACAA1]	55.1 °C	55.3 °C	0.354	-0.509	0.126	-0.102
MQRRGALFGMPGGSGGRKMAAGDIGELLVPHMPTIRVPRSGDRVYKNECAFSYDSPNSEGGLYVCMNTFLAFGREHVERHFRKTGQSVYMHLKRHVREKVRGASGGALPKRRNSKIFLDLDTDDDLNSDDYEYEDEAKLVIFPDHYEIALPNIEELPALVTIACDAVLSSKSPYRKQDPDTWENELPVSKYANNLTQLDNGVRIPPSGWKCARCDLRENLWLNLTDGSVLCGKWFFDSSGGNGHALEHYRDMGYPLAVKLGTITPDGADVYSFQEEEPVLDPHLAKHLAHFGIDMLHMHGTENGLQDNDIKLRVSEWEVIQESGTKLKPMYGPGYTGLKNLGNSCYLSSVMQAIFSIPEFQRAYVGNLPRIFDYSPLDPTQDFNTQMTKLGHGLLSGQYSKPPVKSELIEQVMKEEHKPQQNGISPRMFKAFVSKSHPEFSSNRQQDAQEFFLHLVNLVERNRIGSENPSDVFRFLVEERIQCCQTRKVRYTERVDYLMQLPVAMEAATNKDELIAYELTRREAEANRRPLPELVRAKIPFSACLQAFSEPENVDDFWSSALQAKSAGVKTSRFASFPEYLVVQIKKFTFGLDWVPKKFDVSIDMPDLLDINHLRARGLQPGEEELPDISPPIVIPDDSKDRLMNQLIDPSDIDESSVMQLAEMGFPLEACRKAVYFTGNMGAEVAFNWIIVHMEEPDFAEPLTMPGYGGAASAGASVFGASGLDNQPPEEIVAIITSMGFQRNQAIQALRATNNNLERALDWIFSHPEFEEDSDFVIEMENNANANIISEAKPEGPRVKDGSGTYELFAFISHMGTSTMSGHYICHIKKEGRWVIYNDHKVCASERPPKDLGYMYFYRRIPS [USP13]	50 °C	50.2 °C	0.321	0.746	0.0742	-0.0974
MQSWSRVYCSLAKRGHFNRISHGLQGLSAVPLRTYADQPIDADVTVIGSGPGGYVAAIKAAQLGFKTVCIEKNETLGGTCLNVGCIPSKALLNNSHYYHMAHGKDFASRGIEMSEVRLNLDKMMEQKSTAVKALTGGIAHLFKQNKVVHVNGYGKITGKNQVTATKADGGTQVIDTKNILIATGSEVTPFPGITIDEDTIVSSTGALSLKKVPEKMVVIGAGVIGVELGSVWQRLGADVTAVEFLGHVGGVGIDMEISKNFQRILQKQGFKFKLNTKVTGATKKSDGKIDVSIEAASGGKAEVITCDVLLVCIGRRPFTKNLGLEELGIELDPRGRIPVNTRFQTKIPNIYAIGDVVAGPMLAHKAEDEGIICVEGMAGGAVHIDYNCVPSVIYTHPEVAWVGKSEEQLKEEGIEYKVGKFPFAANSRAKTNADTDGMVKILGQKSTDRVLGAHILGPGAGEMVNEAALALEYGASCEDIARVCHAHPTLSEAFREANLAASFGKSINF [DLD]	58.6 °C	56.8 °C	-0.545	-2.94	-0.00434	-0.0404
MQTPEVPAERSPRRRSISGTSTSEKPNSMDTANTSPFKVPGFFSKRLKGSIKRTKSQSKLDRNTSFRLPSLRSTDDRSRGLPKLKESRSHESLLSPCSTVECLDLGRGEPVSVKPLHSSILGQDFCFEVTYLSGSKCFSCNSASERDKWMENLRRTVQPNKDNCRRAENVLRLWIIEAKDLAPKKKYFCELCLDDTLFARTTSKTKADNIFWGEHFEFFSLPPLHSITVHIYKDVEKKKKKDKNNYVGLVNIPTASVTGRQFVEKWYPVSTPTPNKGKTGGPSIRIKSRFQTITILPMEQYKEFAEFVTSNYTMLCSVLEPVISVRNKEELACALVHILQSTGRAKDFLTDLVMSEVDRCGEHDVLIFRENTIATKSIEEYLKLVGQQYLHDALGEFIKALYESDENCEVDPSKCSSSELIDHQSNLKMCCELAFCKIINSYCVFPRELKEVFASWKQQCLNRGKQDISERLISASLFLRFLCPAIMSPSLFNLMQEYPDDRTSRTLTLIAKVIQNLANFAKFGNKEEYMAFMNDFLEHEWGGMKRFLLEISNPDTISNTPGFDGYIDLGRELSVLHSLLWEVVSQLDKGENSFLQATVAKLGPLPRVLADITKSLTNPTPIQQQLRRFTEHNSSPNVSGSLSSGLQKIFEDPTDSDLHKLKSPSQDNTDSYFRGKTLLLVQQASSQSMTYSEKDERESSLPNGRSVSLMDLQDTHAAQVEHASVMLDVPIRLTGSQLSITQVASIKQLRETQSTPQSAPQVRRPLHPALNQPGGLQPLSFQNPVYHLNNPIPAMPKASIDSSLENLSTASSRSQSNSEDFKLSGPSNSSMEDFTKRSTQSEDFSRRHTVPDRHIPLALPRQNSTGQAQIRKVDQGGLGARAKAPPSLPHSASLRSTGSMSVVSAALVAEPVQNGSRSRQQSSSSRESPVPKVRAIQRQQTQQVQSPVDSATMSPVERTAAWVLNNGQYEEDVEETEQNLDEAKHAEKYEQEITKLKERLRVSSRRLEEYERRLLVQEQQMQKLLLEYKARLEDSEERLRRQQEEKDSQMKSIISRLMAVEEELKKDHAEMQAVIDAKQKIIDAQEKRIVSLDSANTRLMSALTQVKERYSMQVRNGISPTNPTKLSITENGEFKNSSC [RASAL2]	49 °C	49.4 °C	1.04	2.25	0.0337	-0.0989
MQVTLKTLQQQTFKIDIDPEETVKALKEKIESEKGKDAFPVAGQKLIYAGKILNDDTALKEYKIDEKNFVVVMVTKPKAVSTPAPATTQQSAPASTTAVTSSTTTTVAQAPTPVPALAPTSTPASITPASATASSEPAPASAAKQEKPAEKPAETPVATSPTATDSTSGDSSRSNLFEDATSALVTGQSYENMVTEIMSMGYEREQVIAALRASFNNPDRAVEYLLMGIPGDRESQAVVDPPQAASTGAPQSSAVAAAAATTTATTTTTSSGGHPLEFLRNQPQFQQMRQIIQQNPSLLPALLQQIGRENPQLLQQISQHQEHFIQMLNEPVQEAGGQGGGGGGGSGGIAEAGSGHMNYIQVTPQEKEAIERLKALGFPEGLVIQAYFACEKNENLAANFLLQQNFDED [RAD23B]	57 °C	54.1 °C	-2.19	-2.38	0.0413	0.104
